Each substance was assayed against HLA-A*02:01 (Homo sapiens, UniProt P04439, D140Y/D185E/D98H/E176V/E277Q/G131W/G231S/I119V/I121R/I166T/I218V/L300P/L318F/N151K/N90K/P208A/P217A/Q86G/Q94H/R138H/R169H/T345S) (assay: MHC binding assay (UV-ligand exchange, anti-β2m ELISA, peptide exchange yield)). Conditions: binding to HLA-A*02:01.
Summary of the method: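 Peptide-MHC complexes formed by UV-ligand exchange, cleaving a UV-sensitive placeholder peptide in favour of the test peptide. Exchange yield measured by ELISA: monomers diluted 100-fold onto streptavidin-coated plates, 1 h 37 °C, detected with 2 ug/ml HRP anti-β2m and TMB, absorbance at 450 nm.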

Peptide exchange (MHC class I binding score, peptide exchange yield) | Substance
“++” (>20% = ++) | 212 (ALWDQDNLSV; listed as Homo sapiens) [compound 212]
“++” (>20% = ++) | 218 (SALEELVNV; listed as Homo sapiens) [compound 218]
“++” (>20% = ++) | 220 (LLQKFVPEI; listed as Homo sapiens) [compound 220]
“+++” (>50 = +++) | 223 (ALLENIALYL; listed as Homo sapiens) [compound 223]
“+++” (>50 = +++) | 225 (SLLKVLPAL; listed as Homo sapiens) [compound 225]
“++” (>20% = ++) | 227 (ALMNTLLYL; listed as Homo sapiens) [compound 227]
“++” (>20% = ++) | 229 (RLPGPLGTV; listed as Homo sapiens) [compound 229]
“++” (>20% = ++) | 232 (ALLEAQDVELYL; listed as Homo sapiens) [compound 232]
“++” (>20% = ++) | 234 (ALMEDTGRQML; listed as Homo sapiens) [compound 234]
“+++” (>50 = +++) | 240 (ILLEQAFYL; listed as Homo sapiens) [compound 240]
“+++” (>50 = +++) | 241 (SLVEVNPAYSV; listed as Homo sapiens) [compound 241]
“+++” (>50 = +++) | 243 (LLLNELPSV; listed as Homo sapiens) [compound 243]
“+++” (>50 = +++) | 246 (LLWEVVSQL; listed as Homo sapiens) [compound 246]
“+++” (>50 = +++) | 248 (FLFPNQYVDV; listed as Homo sapiens) [compound 248]
“+++” (>50 = +++) | 249 (LLDGFLVNV; listed as Homo sapiens) [compound 249]
“+++” (>50 = +++) | 252 (LLIGTDVSL; listed as Homo sapiens) [compound 252]
“++” (>20% = ++) | 261 (YVLEFLEEI; listed as Homo sapiens) [compound 261]
“+++” (>50 = +++) | 264 (SLQEQLHSV; listed as Homo sapiens) [compound 264]
“++” (>20% = ++) | 265 (LLFGGTKTV; listed as Homo sapiens) [compound 265]
“+++” (>50 = +++) | 267 (ALQDFLLSV; listed as Homo sapiens) [compound 267]
“+++” (>50 = +++) | 272 (ALGNTVPAV; listed as Homo sapiens) [compound 272]
“++” (>20% = ++) | 273 (NLFQSVREV; listed as Homo sapiens) [compound 273]
“++” (>20% = ++) | 277 (LLPPLESLATV; listed as Homo sapiens) [compound 277]
“++” (>20% = ++) | 279 (ALWGGTQPLL; listed as Homo sapiens) [compound 279]
“+++” (>50 = +++) | 280 (VLPDPEVLEAV; listed as Homo sapiens) [compound 280]
“+++” (>50 = +++) | 284 (ILLSQTTGV; listed as Homo sapiens) [compound 284]

Continued, substance first:

Substance | Peptide exchange (MHC class I binding score, peptide exchange yield)
211 (LLWPGAALL; listed as Homo sapiens) [compound 211] | “++” (>20% = ++)
214 (FLLDLDPLLL; listed as Homo sapiens) [compound 214] | “+++” (>50 = +++)
216 (NLWEDPYYL; listed as Homo sapiens) [compound 216] | “+++” (>50 = +++)
217 (ALIHPVSTV; listed as Homo sapiens) [compound 217] | “++” (>20% = ++)
219 (KLSDIGITV; listed as Homo sapiens) [compound 219] | “+++” (>50 = +++)
221 (ALYEEGLLL; listed as Homo sapiens) [compound 221] | “++” (>20% = ++)
222 (NLIENVQRL; listed as Homo sapiens) [compound 222] | “++” (>20% = ++)
224 (TLIDAQWVL; listed as Homo sapiens) [compound 224] | “+++” (>50 = +++)
226 (MLYVVPIYL; listed as Homo sapiens) [compound 226] | “++” (>20% = ++)
228 (AMQEYIAVV; listed as Homo sapiens) [compound 228] | “++” (>20% = ++)
230 (ILVDWLVEV; listed as Homo sapiens) [compound 230] | “+” (>10% = +)
231 (FLSPQQPPLLL; listed as Homo sapiens) [compound 231] | “++” (>20% = ++)
233 (VLSETLYEL; listed as Homo sapiens) [compound 233] | “++” (>20% = ++)
235 (YLNDLHEVLL; listed as Homo sapiens) [compound 235] | “++++” (>75% = ++++)
236 (GLLEAKVSL; listed as Homo sapiens) [compound 236] | “+++” (>50 = +++)
237 (ALLEASGTLLL; listed as Homo sapiens) [compound 237] | “++++” (>75% = ++++)
238 (YLISFQTHI; listed as Homo sapiens) [compound 238] | “+++” (>50 = +++)
239 (AAFAGKLLSV; listed as Homo sapiens) [compound 239] | “+++” (>50 = +++)
244 (SLFGGTEITI; listed as Homo sapiens) [compound 244] | “+++” (>50 = +++)
245 (SMIDDLLGV; listed as Homo sapiens) [compound 245] | “+++” (>50 = +++)
250 (ALSEEGLLVYL; listed as Homo sapiens) [compound 250] | “+++” (>50 = +++)

Substance | Peptide exchange (MHC class I binding score, peptide exchange yield)
251 (ALYTGFSILV; listed as Homo sapiens) [compound 251] | “++” (>20% = ++)
253 (GLDAATATV; listed as Homo sapiens) [compound 253] | “++” (>20% = ++)
254 (TLLAFIMEL; listed as Homo sapiens) [compound 254] | “+++” (>50 = +++)
255 (VLASYNLTV; listed as Homo sapiens) [compound 255] | “+++” (>50 = +++)
256 (FLPPEHTIVYI; listed as Homo sapiens) [compound 256] | “+++” (>50 = +++)
257 (SIFSAFLSV; listed as Homo sapiens) [compound 257] | “+++” (>50 = +++)
258 (ELAERVPAI; listed as Homo sapiens) [compound 258] | “++” (>20% = ++)
262 (LLWGDLIWL; listed as Homo sapiens) [compound 262] | “+++” (>50 = +++)
263 (LLVSNLDFGV; listed as Homo sapiens) [compound 263] | “+++” (>50 = +++)
266 (KITDTLIHL; listed as Homo sapiens) [compound 266] | “+++” (>50 = +++)
269 (RVLEVGALQAV; listed as Homo sapiens) [compound 269] | “++” (>20% = ++)
270 (LLLDEEGTFSL; listed as Homo sapiens) [compound 270] | “++” (>20% = ++)
271 (LVYPLELYPA; listed as Homo sapiens) [compound 271] | “+++” (>50 = +++)
274 (SLLFSLFEA; listed as Homo sapiens) [compound 274] | “++” (>20% = ++)
275 (YLVYILNEL; listed as Homo sapiens) [compound 275] | “++” (>20% = ++)
276 (ALFTFSPLTV; listed as Homo sapiens) [compound 276] | “+++” (>50 = +++)
278 (QLLDVVLTI; listed as Homo sapiens) [compound 278] | “++” (>20% = ++)
281 (ILRESTEEL; listed as Homo sapiens) [compound 281] | “+++” (>50 = +++)
282 (LLADVVPTT; listed as Homo sapiens) [compound 282] | “+++” (>50 = +++)
285 (QLLHVGVTV; listed as Homo sapiens) [compound 285] | “+++” (>50 = +++)

Source: US10239925B2, “Peptides and combination of peptides for use in immunotherapy against ovarian cancer and other cancers” (IMMATICS BIOTECHNOLOGIES GMBH, priority 2015, dated 2019)
